Experimental findings from US20130149237A1 are described below.

Experiment [1] addresses Recombinant human ApoER2 (R&D Systems #3520-AR) (human) (UniProt Q14114). Nature of the experiment: ELISA on plates coated with 1 µg/ml recombinant human ApoER2; sample: Apical/Luminal medium of the transwell with Empty Filter.
For experiment [2] the target is unchanged. The experiment is described as follows: ELISA on plates coated with 1 µg/ml recombinant human ApoER2; sample: Apical/Luminal medium of the transwell with hCMEC/D3 cells.
Experiment [3] shares this target. The experiment is described as follows: direct ELISA: wells coated with 1 ug/ml recombinant human ApoER2, antibody titrated, HRP anti-mouse IgG detection.
For experiment [4] the target is unchanged. Nature of the experiment: ELISA on plates coated with 1 µg/ml recombinant human ApoER2; sample: Apical/Luminal medium of the transwell with hCMEC/D3 cells, antibody premixed with a 10-fold excess of soluble recombinant human ApoER2 (low value put down to interference in the ELISA).
Experiment [5] has the same target. The experiment is described as follows: ELISA on plates coated with 1 µg/ml recombinant human ApoER2; sample: Basolateral/Abluminal medium of the transwell with Empty Filter.
The target is the same in experiment [6]. Nature of the experiment: ELISA on plates coated with 1 µg/ml recombinant human ApoER2; sample: Basolateral/Abluminal medium of the transwell with hCMEC/D3 cells.
Experiment [7] has the same target. Nature of the experiment: ELISA on plates coated with 1 µg/ml recombinant human ApoER2; sample: Basolateral/Abluminal medium of the transwell with hCMEC/D3 cells, antibody premixed with a 10-fold excess of soluble recombinant human ApoER2.

UniProt Q14114, sequence (Q14114 other isoform, or with tags, fused parts or gaps limits assumed): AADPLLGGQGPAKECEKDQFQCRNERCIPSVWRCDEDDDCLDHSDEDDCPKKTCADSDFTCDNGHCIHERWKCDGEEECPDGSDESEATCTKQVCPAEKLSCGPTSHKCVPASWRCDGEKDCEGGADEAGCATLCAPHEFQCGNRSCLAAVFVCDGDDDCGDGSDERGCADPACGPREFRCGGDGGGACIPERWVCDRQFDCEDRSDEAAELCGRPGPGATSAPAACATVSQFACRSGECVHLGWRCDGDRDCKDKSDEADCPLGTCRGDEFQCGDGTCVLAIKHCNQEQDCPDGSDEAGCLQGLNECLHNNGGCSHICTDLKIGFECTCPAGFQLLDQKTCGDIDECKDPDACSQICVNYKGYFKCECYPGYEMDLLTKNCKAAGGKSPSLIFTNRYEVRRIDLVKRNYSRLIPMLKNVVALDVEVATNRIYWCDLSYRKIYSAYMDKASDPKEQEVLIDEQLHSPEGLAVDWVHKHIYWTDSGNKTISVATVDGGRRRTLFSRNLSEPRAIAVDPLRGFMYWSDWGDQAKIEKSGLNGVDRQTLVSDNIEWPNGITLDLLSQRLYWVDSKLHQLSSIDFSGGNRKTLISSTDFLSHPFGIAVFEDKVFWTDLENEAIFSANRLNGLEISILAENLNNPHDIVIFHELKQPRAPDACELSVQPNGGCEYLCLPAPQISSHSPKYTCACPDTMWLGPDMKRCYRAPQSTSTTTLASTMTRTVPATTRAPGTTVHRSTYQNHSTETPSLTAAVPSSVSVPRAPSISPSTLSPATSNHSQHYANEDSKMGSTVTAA

As to “mouse monoclonal anti-human ApoER2 antibody (Abcam ab58216)”, the Volume Adjusted OD450nm in experiment [1] is 2.75 OD450nm; in experiment [2], 3.57 OD450nm; in experiment [4], 0.537 OD450nm; in experiment [5] it was 0.362 OD450nm; in experiment [6] it was 0.138 OD450nm; in experiment [7] it was 0.0789 OD450nm. Besides, the concentration for half-maximal inhibition (IC50) in experiment [3] amounted to 0.068 mg/L.
